Biological target: C3b (UniProt P01024 749-1663, most molecules attached to the chip surface via the thioester group)
Experiment: SPR

Kd	Binder
709 nM	miniFH (other) AGEDCNELPPRRNTEILTGSWSDQTYPEGTQAIYKCRPGYRSLGNVIMVCRKGEWVALNPLRKCQKRPCGHPGDTPFGTFTLTGGNVFEYGVKAVYTCNEGYQLLGEINYRECDTDGWTNDIPICEVVKCLPVTAPENGKIVSSAMEPDREYHFGQAVRFVCNSGYKIEGDEEMHCSDDGFWSKEKPKCVEISCKSPDVINGSPISQKIIYKENERFQYKCNMGYEYSERGDAVCTESGWRPLPSCEEGKCGPPPPIDNGDITSFPLSVYAPASSVEYQCQNLYQLEGNKRITCRNGQWSEPPKCLHPCVISREIMENYNIALRWTAKQKLYSRTGESVEFVCKRGYRLSSRSHTLRTTCWDGKLEYPTCAKR
27 nM	midiFH (other) AGEDCNELPPRRNTEILTGSWSDQTYPEGTQAIYKCRPGYRSLGNVIMVCRKGEWVALNPLRKCQKRPCGHPGDTPFGTFTLTGGNVFEYGVKAVYTCNEGYQLLGEINYRECDTDGWTNDIPICEVVKCLPVTAPENGKIVSSAMEPDREYHFGQAVRFVCNSGYKIEGDEEMHCSDDGFWSKEKPKCVEISCKSPDVINGSPISQKIIYKENERFQYKCNMGYEYSERGDAVCTESGWRPLPSCEEGKCGPPPPIDNGDITSFPLSVYAPASSVEYQCQNLYQLEGNKRITCRNGQWSEPPKCLHPCVISREIMENYNIALRWTAKQKLYSRTGESVEFVCKRGYRLSSRSHTLRTTCWDGKLEYPTCAKREDCNELPPRRNTEILTGSWSDQTYPEGTQAIYKCRPGYRSLGNVIMVCRKGEWVALNPLRKCQKRPCGHPGDTPFGTFTLTGGNVFEYGVKAVYTCNEGYQLLGEINYRECDTDGWTNDIPICEVVKCLPVTAPENGKIVSSAMEPDREYHFGQAVRFVCNSGYKIEGDEEMHCSDDGFWSKEKPKCVEISCKSPDVINGSPISQKIIYKENERFQYKCNMGYEYSERGDAVCTESGWRPLPSCEEGKCGPPPPIDNGDITSFPLSVYAPASSVEYQCQNLYQLEGNKRITCRNGQWSEPPKCLHPCVISREIMENYNIALRWTAKQKLYSRTGESVEFVCKRGYRLSSRSHTLRTTCWDGKLEYPTCAKR

From article PMC4707092 (Journal of immunology (Baltimore, Md. : 1950), 2015)
